Patent US20160168266A1 (SBI BIOTECH, published 2016)
Substitutions are numbered along the chain they refer to.

T1: human phospholipase D4 (PLD4) protein (human, UniProt Q96BZ4 1-506)
T1 construct: The hybridoma FACS screening used CAL-1 cells; also called human PLD4
T1 sequence: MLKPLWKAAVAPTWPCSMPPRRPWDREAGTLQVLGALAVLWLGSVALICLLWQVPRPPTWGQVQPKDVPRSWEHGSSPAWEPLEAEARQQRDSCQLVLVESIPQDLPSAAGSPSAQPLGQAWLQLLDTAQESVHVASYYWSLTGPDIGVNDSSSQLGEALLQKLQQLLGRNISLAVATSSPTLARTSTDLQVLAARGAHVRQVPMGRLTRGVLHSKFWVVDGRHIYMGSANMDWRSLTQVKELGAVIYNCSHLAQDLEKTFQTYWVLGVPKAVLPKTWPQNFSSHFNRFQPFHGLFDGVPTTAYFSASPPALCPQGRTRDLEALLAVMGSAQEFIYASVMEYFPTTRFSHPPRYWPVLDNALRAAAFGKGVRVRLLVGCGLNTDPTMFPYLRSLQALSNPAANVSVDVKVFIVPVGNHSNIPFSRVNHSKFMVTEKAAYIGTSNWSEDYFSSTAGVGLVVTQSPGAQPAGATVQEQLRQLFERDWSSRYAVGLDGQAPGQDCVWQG

B1: anti-PLD4 mouse 8C11 antibody (antibody, mouse IgG2b, V domains shown)
VH: QVQLQQSGAELVKPGASVKLSCKASGYTFTSYYLYWVRQRPGQGLEWIGLINPTNSDTIFNEKFKSKATLTVDKSSSTAYMQLSSLTSEDSAVYYCTREGGYGYGPFAYWGQGTLVTVSA
VL: DVVMTQTPLSLPVSLGDQASISCTSSQTLVHSNGNTYLHWYLQKPGQSPKLLIYKVSNRFSGVPDRFSGSGSGTDFTLKISRVEAEDLGVYFCSHSTHVPFTFGSGTKLEIKR
notes: Mouse IgG2b, kappa monoclonal antibody
B2: anti-PLD4 mouse 10C3 antibody (antibody, mouse IgG2a, V domains shown)
VH: EVQLVESGGDLVRPGGSLKLSCAASGFSFSSYGMSWFRQTPDKRLEWVATISSGGSYIYYPESVKGRFTISRDNARNILYLQMSSLKSEDTAMYYCVRLYGGRRGYGLDYWGQGTSVTVSS
VL: EIVMTQAAFSNPVTLGTSASISCRSSKSLLHSDGITYLYWYLQKPGQSPQLLIYQMSNLASGVPDRFSSSGSGTDFTLRISRVEAEDVGVYYCAQNLELYTFGGGTKLEIKR
notes: Mouse IgG2a, kappa monoclonal antibody
B3: anti-PLD4 mouse 11D10 antibody (antibody, mouse IgG2b, V domains shown)
VH: B2 VH
VL: B2 VL
notes: Mouse IgG2b, kappa monoclonal antibody with the same CDRs as 10C3
B4: chimeric 13D4 antibody (antibody, V domains shown)
VH: DVQLQESGPGLVKPSQSLSLTCSVTGYSITSHYYWTWIRQFPGNKLEWMGYISYDGSNNYNPSLKNRISITRDTSKNQFFLKLNSVTTEDTATYNCAREGPLYYGNPYWYFDVWGAGTTVTVSS
VL: DIQMTQTTSSLSASLGDRVTISCRASQDIDNYLNWYQQKPDGTVKLLIYYTSRLHSGVPSRFSGSGSGTDYSLTISNLEQEDVATYFCQQFNTLPRTFGGGTKLEIKR
B5: anti-PLD4 chimeric 11G9.6 antibody (antibody, human IgG1, kappa, V domains shown)
VH: QVQLQQPGAELVKPGTSVKMSCKASGYTFTSYWMHWVKQRPGQGLEWIGDIYPGSDSTNYNEKFKSKATLTVDTSSSTAYMQLSSLTSEDSAVYYCARGGWLDAMDYWGQGTSVTVSS
VL: B4 VL with D30S, V83I, F91G, R96W
B6: chimeric 13H11 antibody (antibody, V domains shown)
VH: B4 VH with T30S, T36S, K45R
VL: B4 VL with D17G, R18S, V83I
B7: chimeric 3B4 antibody (antibody, V domains shown)
VH: EVQLQQSGTVLSRPGASVTMSCKASGDSFTTYWMHWVKQRPGQGLEWIGAIYPGNSETSYNQKFKGKAKLTAVTSASTAYMEFTSLTNEDSAVYYCTGGYSDFDYWGQGTTLTVSS
VL: DILMTQSPSSMSVSLGDTVSITCHASQGIRSNIGWLQQKPGKSFKGLIFHGTNLEDGVPSRFSGRGSGADYSLTINSLESEDFADYYCVQYVQFPPTFGSGTKLEIRR
B8: chimeric 5B7 antibody (antibody, V domains shown)
VH: EVQLQQSGPELVKPGASVKISCKASGYTFTDYNLHWVKQSHGKSLEWIGYIYPYNGNTGYNQKFKRKATLTVDNSSGTVYMELRSLTSEDSAVYYCARGGIYDDYYDYAIDYWGQGTSVTVSS
VL: DIQMTQSPASLSVSVGETVAITCRASENIYSHIAWYQQKEGKSPQRLVYGATNLAHGVPSRFSGSGSGTQYSLKINSLQSEDFGSYYCQHFWGTPWTFGGGTKLEIKR

Biological target: T1, human phospholipase D4 (PLD4) protein
Assay: FACS screening of hybridoma culture supernatant (CAL-1 cells)

Row | Binder | binding result
1 | B1 | binds
2 | B2 | binds
3 | B3 | binds

Biological target: T1, human phospholipase D4 (PLD4) protein
Assay: cell-based or functional assay

Row | Binder | PLD4+ activated B cells after culture of PBMC with CpG2006 and the chimeric antibody, with control Ig treatment taken as 100% [%]
4 | B4 | 56
5 | B5 | 66.4
6 | B6 | 55.3
7 | B7 | 70.2
8 | B8 | 25.8
